Measurements as given in publication PMC5874619, “Enzymatic Preparation of 2,5-Furandicarboxylic Acid (FDCA)—A Substitute of Terephthalic Acid—By the Joined Action of Three Fungal Enzymes” (Microorganisms, 2018).

Columns and labels:
Assay in all cases: HPLC, varied substrate, Michaelis-Menten plot
PostAAO = system: T1, PostAAO; assay type: biochemical, Pleurotus ostreatus
T1 construct: gene aao

[1] = substrate: O=Cc1ccc(C=O)o1; assay type: biochemical, Cyclocybe aegerita; details: pH 6.0
[2] = substrate: O=Cc1ccc(CO)o1; assay type: biochemical, Cyclocybe aegerita; details: pH 6.0

Molecule	Km (PostAAO)	Km [1]	kcat [1]	kcat/Km [1]	Km [2]	kcat [2]	kcat/Km [2]
O=Cc1ccc(CO)o1 [HMF, 5-hydroxymethylfurfural]	7.2 mM	–	–	–	–	–	–
(Cyclocybe aegerita) (protein) EPGLPPGPLENSSAKLVNDEAHPWKPLRPGDIRGPCPGLNTLASHGYLPRNGVATPVQIINAVQEGLNFDNQAAVFATYAAHLVDGNLITDLLSIGRKTRLTGPDPPPPASVGGLNEHGTFEGDASMTRGDAFFGNNHDFNETLFEQLVDYSNRFGGGKYNLTVAGELRFKRIQDSIATNPNFSFVDFRFFTAYGETTFPANLFVDGRRDDGQLDMDAARSFFQFSRMPDDFFRAPSPRSGTGVEVVIQAHPMQPGRNVGKINSYTVDPTSSDFSTPCLMYEKFVNITVKSLYPNPTVQLRKALNTNLDFFFQGVAAGCTQVFPYGRD	–	0.82 mM	29.2 s⁻¹	35600 M⁻¹ s⁻¹	6.07 mM	222 s⁻¹	36600 M⁻¹ s⁻¹
